Reference: US20080260731A1

Target: human V158 FcγRIIIa (FcγR-His) (human) (UniProt P08637)
Assay: Biacore SPR

Sequence of human V158 FcγRIIIa (FcγR-His) (human) (P08637 17-208 F176V limits assumed): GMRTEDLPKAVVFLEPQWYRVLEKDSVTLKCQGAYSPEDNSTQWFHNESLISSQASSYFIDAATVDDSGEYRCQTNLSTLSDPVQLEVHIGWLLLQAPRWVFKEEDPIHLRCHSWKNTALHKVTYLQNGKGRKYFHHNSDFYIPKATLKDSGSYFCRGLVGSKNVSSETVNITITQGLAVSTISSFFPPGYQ

A Kd of 0.24 µM was found for “4G7 IgG1 antibody (chimeric, murine H0/L0 variable regions on human IgG1/kappa)” in this work.
